According to article PMC8011160:

Columns and labels:
[1] = biological target: collagen Type I (purified from rat tail) (rat), P02454; assay: ELISA; host protein coated on microtiter wells; recombinant protein varied from 0 to 2 μM; absorbance with BSA subtracted; apparent Kd from the half-maximal binding concentration (GraphPad Prism 6); conditions: remark: other sources report otherwise
[2] = biological target: T1, fibrinogen (purified from human plasma) (human), P02671; assay: as above; conditions: remark: other sources report otherwise
T1 chain 1: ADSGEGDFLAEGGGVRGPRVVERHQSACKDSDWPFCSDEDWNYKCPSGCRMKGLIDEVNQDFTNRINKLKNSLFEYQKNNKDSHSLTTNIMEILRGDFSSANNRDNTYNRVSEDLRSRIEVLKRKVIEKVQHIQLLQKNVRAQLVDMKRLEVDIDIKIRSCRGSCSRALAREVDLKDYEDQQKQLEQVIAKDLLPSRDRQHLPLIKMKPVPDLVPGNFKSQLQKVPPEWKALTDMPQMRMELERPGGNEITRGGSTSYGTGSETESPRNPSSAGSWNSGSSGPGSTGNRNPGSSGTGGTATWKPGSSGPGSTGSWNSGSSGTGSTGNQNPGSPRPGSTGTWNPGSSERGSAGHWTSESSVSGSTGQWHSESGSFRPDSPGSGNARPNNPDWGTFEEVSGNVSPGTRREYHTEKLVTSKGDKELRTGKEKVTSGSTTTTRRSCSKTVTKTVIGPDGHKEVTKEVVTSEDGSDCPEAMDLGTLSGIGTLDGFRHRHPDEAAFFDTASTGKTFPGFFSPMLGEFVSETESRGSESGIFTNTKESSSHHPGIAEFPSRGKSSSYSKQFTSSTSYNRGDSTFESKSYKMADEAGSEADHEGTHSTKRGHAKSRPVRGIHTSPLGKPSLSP
T1 chain 2: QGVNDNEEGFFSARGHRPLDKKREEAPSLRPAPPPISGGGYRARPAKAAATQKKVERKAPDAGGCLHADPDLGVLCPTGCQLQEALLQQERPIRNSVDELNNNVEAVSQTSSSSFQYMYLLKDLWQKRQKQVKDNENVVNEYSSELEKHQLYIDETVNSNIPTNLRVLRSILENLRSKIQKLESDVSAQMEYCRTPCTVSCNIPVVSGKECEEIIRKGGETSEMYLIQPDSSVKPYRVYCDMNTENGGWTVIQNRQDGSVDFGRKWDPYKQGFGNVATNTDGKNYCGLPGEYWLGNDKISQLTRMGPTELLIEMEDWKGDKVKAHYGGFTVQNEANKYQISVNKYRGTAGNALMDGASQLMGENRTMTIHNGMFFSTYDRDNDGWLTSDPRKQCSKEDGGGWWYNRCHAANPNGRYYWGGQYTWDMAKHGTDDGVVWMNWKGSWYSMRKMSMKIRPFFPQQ
T1 chain 3: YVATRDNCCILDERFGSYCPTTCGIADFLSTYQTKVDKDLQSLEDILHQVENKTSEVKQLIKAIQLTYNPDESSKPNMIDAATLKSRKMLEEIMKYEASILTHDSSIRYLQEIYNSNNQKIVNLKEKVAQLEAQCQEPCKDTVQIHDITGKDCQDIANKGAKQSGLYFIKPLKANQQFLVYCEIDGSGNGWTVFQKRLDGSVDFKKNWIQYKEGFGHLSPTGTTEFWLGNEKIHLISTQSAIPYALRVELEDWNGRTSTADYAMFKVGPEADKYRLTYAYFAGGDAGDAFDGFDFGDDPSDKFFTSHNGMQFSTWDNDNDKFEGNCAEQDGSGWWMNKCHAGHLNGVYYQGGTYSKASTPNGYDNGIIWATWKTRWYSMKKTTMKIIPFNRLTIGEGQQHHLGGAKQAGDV

B1: GroEL protein of Leptospira interrogans (recombinant, His-tagged), P61438 1-546 (natural protein)
chain: MAKDIEYNETARRKLLEGVNKLANAVKVTLGPKGRNVVIDKKFGAPTITKDGVTVAKEIELEDPLENMGAQMVKEVSTKTNDVAGDGTTTATILAQSIINEGLKNVTAGANPMSLKKGIDKAVTAAVESIQKRAVKIENKKDIANVASISANNDNTIGNLIADAMDKVGKDGVITVEEAKSIETTLDVVEGMQFDRGYISPYMVTDAESMVATLNDPFILIYDKKISSMKDLIHILEKVAQAGKPLVIISEEVEGEALATIVVNTLRKTISCVAVKAPGFGDRRKSMLEDIAILTGGQVISEDLGMKLENTTLQMLGRANKVTVDKENTTIIEGKGQTKEIQGRIGQIKKQIEDTTSEYDREKLQERLAKLAGGVAVIHVGAATEVEMKEKKARVEDALSATRAAVEEGIVPGGGLTLLKAQEAVGSLKLDGDEATGAKIIFRALEEPIRMITSNAGLEGSVIVEHAKAKKGNEGFNALTMVWEDMIQAGVVDPAKVVRSALQNAASIGSMILTTEVTITDKPDKDAPNPMAGMGGGGMGGMGGMM
B1 gave a Kd [1] of 11 nM and a Kd [2] of 23 nM.
